Assay: label from the status in PepcDB records
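Also: failed if final PepcDB status was selected cloned or expressed and not failed if soluble or beyond.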

Q: Which protein production does the source give for “MRILFVGPPLYGLLYPVLSLAQAFRVNGHEVLIASGGKFAQKAAEAGLVVFDAAPGFDSEAGYRRQEALRKENNIGTKMGNFSFFSEEMTDPLVAFAGQWRPDLIVYPPLGVVGPLIAAKYDIPVVMQTVGFGHTPWHIKGVTKSLSNAYRRHGVSAPPRDLAWIDVTPPSMSILQNDGEPVISMQYVPYNGGAVWEEWWERTPDRKRLLVSLGTVKPMVDGLDLISWVMDSAGEVDAEIILHLPANARSDLRSLPPNVRLVDWLPMGVFLNGADGFIHHGGAGNTLTALHAGIPQIVFGQGADRPVNARAVVERGCGIIPGKSGLTSSMINTFLGNRALREASQEVAAEMAAQPCPTEVAKKLIAMLQHGLEHHHHHH” here?
A: failed

Q: With “MRILSGMRPTGKLHIGHLVGALENWVKLQEEGNECFYFVADWHALTTHYDDVSKLKEYTRDLVRGFLACGIDPEKSVIFVQSGVKEHAELALLFSMIVSVSRLERVPTYKEIKSELNYKDLSTAGFLIYPVLQAADILIYKAEGVPVGEDQVYHIELTREIARRFNYLYDEVFPEPEAILSRVPKLPGTDGRKMSKSYGNIINLEISEKELEQTILRMMTDPARVRRSDPGNPENCPVWKYHQAFDISEEESKWVWEGCTTASIGCVDCKKLLLKNMKRKLAPIWENFRKIDEDPHYVDDVIMEGTKKAREVAAKTMEEVRRAMNLMF” as the sequence, how does the protein production read?
A: not failed

Q: For “MRIPHHLSRSPTGRWSFVQRVPVDLQTVMGCRLIKRTLQTKDLAQAHVRAVVLGAGYARLFAQLTDQRVDKLSKTDADLLIARLTSAENLQDLTLNRTRQPDGTVTEQWQIDSPKDLKLYRQLMELEAMAGAALQARAHPVAVPTMFGSTHAGPSRQSSAPAIETMTLGKARDAFLATLKGSTLPKTYTIKKTAIEALVSFLGPTMKVHAITRSDLARWYQDMREKGASTPTLTNKQSYIGGRGGFFEWAMASGHYPKGDNPASGHVSYSQREKRARKKLGFKAYDRAQIQALFAPEALAKLSESARWASFLGLYTGARASEVGQLLVKDVFEEDGIPCIRISDEGEHQKVKTEVSLRTVPLHPELLKMGFLEWVGGKRKVGETRLFPAAKATAVNGQGNWITKAFSRHLAEVGKNWEPAKRGFHSLRKTLIQELQGAGVVSELRAQIVGHELDDEHHSTYGRDFTVVEKLRGLGPHSPGISRLSFFQ”, which protein production is on record?
A: failed

Q: For “MRIRFSRCASPRGKSSTGVIVPVCSAIYSIRRFWRWNKMKISVVIPTFNRCHLLAEAINSALDQASSELEVEAVIVDDESDDGTAAWLETAFAGEHRVRVLVNGRGKRPAGARNTGILAARHPKVGVIFSRARYEQDETEVPYMDPNFECKLCYASIATEDKDAVVFDRSYFGHLLKYSCYFNLSAVVMTADAARQLMSESLHIAEDFKFWVRLSHEQIFACLKVPQIRYRSHSANIPFKADKDPAGNTPSMLHTYRLMLGYPGLARSNREQLRKHMAKEYFDWAYRCSRKGRLAEALRLRLALFDLLWKNVVACVKLPWIGLRYRADRVGSTEQ”, which protein production is on record?
A: failed

Q: For “MRIVGLTGGIASGKSTVSNLFKASGIPVVDADVVARDVLKKGSGGWKRVVAAFGEEILLPSGEVDRPKLGQIVFSSDSKRQLLNKLMAPYISSGIFWEILKQWASGAKVIVVDIPLLFEVKMDKWTKPIVVVWVSQETQLKRLMERDGLSEEDARNRVMAQMPLDSKRSKADVVIDNNGSLDDLHQQFEKVLIEIRRPLTWIEFWRSRQGAFSVLGSVILGLSVCKQLKIGS”, which protein production is on record?
A: failed

Q: With “MRIYRTLTTYIARTYLTALVGATLVVGALLMLFDVIEITRRSGSKAIGIDVVLEMALYHLPMSLQSALPFVFMGGAVMIFWKLARSSELVVIRAAGLSVWQFLAPVIAVVVVLGIANVTLLNPLAAHLYTKYERMDAGMDSGVANPLALSDGGLWLRENNPEGQVVMHAQGVRQVDNALRMTGVTIFRYGPDRRFESRIDAETAGLREGALVLTSVVTTYPGRVGERAETLEVPSNLTLPKIQDSFSPPETVSFWELPAFITFFEAAGFSAHAHRLHWHSLIASPLLLIAMVLMGAVFSLKPSQRSVNWLFRIVGAVAAGFGVFFFSKITYTLGLSQTLPVNLAAWSPALVTTMVALAALFHLEDG” as the sequence, how does the protein production read?
A: failed

Q: Which protein production does the source give for “MRKDETSNTSPDISVAQPASALRYHLRPPRRNDGAAIHQLVSECPPLDLNSLYAYLLLCEHHAHTCVVAESPGGRIDGFVSAYLLPTRPDVLFVWQVAVHSRARGHRLGRAMLGHILERQECRHVRHLETTVGPDNQASRRTFAGLAGERGAHVSEQPFFDRQAFGGADHDDEMLLRIGPFTHPPH” here?
A: not failed

Q: Which protein production does the source give for “MRKDILYMLLLLLITDLSIIADIPVLRQSLPFIFFTIIPGYLLLGILKFKVELIDGSVIAAALSIFLMMMTGLIINSFYPLIMRPLSLLPILSAINLLIIALMVIYHLRGEEPLNLKASGNLSTALSSLLFPVLTVIGSYLMNKYSVNTVLLLVLLFIPVYIILLEVFKKKIGPATYPVAIFSISLSLLIMNGLPSNYLIGRDIHWEFYLFRKALMAHHWDMHVGSYNAYNACLSVTVLPVIYKVLLNVPEVYIFKFYYGFIGALMPLPVYLISERILKRSDYGFYATLLFIFQFSFIYILGWCRQLVALLFFAAAVMVLTGDMRRSHKKLLFVVFMVGTVLSHYTTAYVFFFLVALIPILVRVMKRLKVPDDSRGFFAASLAVLFFVVVFAWYAQATGAPFKSAVSFFTKTLRSMSEFFSADMRNNSELAVVGIGISNFPNLLSTLVHDTVFALIGAGALAVIFKEEYRQGREYLAAVILCMGILVAFIALPFVSKGYGGPRLFTQLLVILAPLFITGIDALTGFIGRVRWRIPSIIVLLILLFSCTTYLNYHFAGIPYSYAYDDGGERRYETFIYDNEVTGALWLSNHYNETSVIHGDKMIYSRIIYGFSTYPRVDREFFNGTDTETGGYVYLTHFNLYQRLVFLDYPLAPPRVVNGALKLDNVESINNYKDLIVNMSTIYDNGGSRVLIVA” here?
A: failed

Q: For “MRKDWGDGPGGLGTAMQDKILLIEDSVALSMLLRTRLSDETEAEVVHCASMAEADALMQANNFTLALTGLNLPDAPKGEILTLLSERKVPAIVFTATVDEEARKRYAEKKIIDYIVKDGHRTVDAVVKTVDRIMTNKRFSVLVVDDARTARSGLVEILERQNFKVSEAHSGNRALEILSQDPSIQLVITDYHMPDMDGYELTRRIRDSRSSEDLRVIGISSSTDRLLSASFLKAGASDFVYRPFVPEELQCRIDNNIETLKQLKRLRELAERDHLTGLPNRRSFFERTRALMDVINDNDESGAVAILDIDHFKKINDTLGHDAGDRALKKLAELLQGMCDEQRHIPARLGGEEFAVFLRGLDARAAYAFCEELREQVEKNGRQLSGSSLALTISLGVVEIEKGEPFDNQLNAADQLLYLAKANGRNRVYSDIMIQEGLQKIGLNG”, which protein production is on record?
A: failed

Q: For “MRKIQFPFCILDVIQRKGVRVLYIIIPIVVLLLIFLFAGYVKAPPNKAAIITGLSKNPRVLLGKSGFKVPFFERVDWLEVGQININVVTEDYIPTKDFINIKVDAIAQVAMEVSNNQVSAVAMRNFLNRKADDVRSMITESLQGNLREIIGTMDLKSICQDKAKFSQEVKQNAEQDMKELGIRILSFNVQNVNDKDGLIDDLGIDNRETIRKTARVAKANADRDVEVASAEAANKASEAKVAAELAIAQRNNDLEIRKAELKIGEDTKKAEADAAYEIQKQTSRKTVEIREQEADIARREKEIELQTKEAEVAEKKLDAEIRKKAEADKYAEMQNADAELYRRQKDAEAQQYEAEKEAAAIRAKGLAEAEAIRQKGLAEAEALDKKAEAMKKYGQAAILEMIVGVLPDIAKSVAEPLSAIDKVTVIGGNSDGVSDLAGNVPIIMGKVMESVKEATGIDMNEIIRAETFEGKTTKNINFTGLDQVGEEIAQGAAQSVSETLQETE”, which protein production is on record?
A: failed

Q: Which protein production does the source give for “MRKKEENLNTASGLRIAMILLGIAVTPVLLSSSSLGNQLSSSSLISVVLLGGVILTLLSAITISVGEKARLPTYGIVKYSFGEKGAIAINILMAISLFGWIAVTANMFGHSVHDLLAQHGLEVPLALLVAAGCVIFVASTAFGFTVLGKIAQVAVPVIALVLCYILYVATHTEVAVPAAIVEMNTGVAVSTVVGTIIVLVATLPDFGSFVHNRKHALIAAGVTFLVAYPLLYWAGATPSAISGQGSLLGAMAVFGAVLPAALLLIFACVTGNAGNMFQGTLVVSTLLTRFPKWQITVALGILSAIVGSMDIMAWFIPFLLFLGIATPPVAGIYIADFFLYRRNGYQESVLAQESQIKVLTFAAWIIGAAVGFMTVKGLFTLTTIPSVDSILVACIAYAILSRASQHR” here?
A: failed

Q: For “MRKSDREAFLSSVLGNEQPPAHLARTVIEEKLRNAIIDGSLPSGTALRQQELATLFGVSRMPVREALRQLEAQSLLRVETHKGAVVAPLITEDAVDAYALRILLESEALRLSIPLLDADDLAAAASYIEQLEVETDFGQIGRLNRMFHLSLYAKTHNKRLMRLVEEGLNEEERFLRFNLSSMGLGKLSQDDHWQLLRLAEQKAVEPCVEALQYHLNRGVQAVTQYLQSQKAGNVKPARTKKNTPA”, which protein production is on record?
A: not failed

Q: For “MRKSKLTFIATFLILLFLSMPYKAHAASQTPITRADAEQRALTMINLNWTYSKSKNGVLPSAYSGSITAPSQFRGIENVVATGIPYCWGGFDGLNSSSYGESWTNFTDAVNKGAFVGNVKSSSYGHITGTAGLDCSGFVQATFNIKDYKLSTSTIFNQYFTKIDIKDIKHMDILNLPGNHVVIFDKWGTRNGVNGAYTYEATPDTTYGGIQGTKQYFMSMNTVSQYIPGRYVNIKEVAYVQVINASSLNIRTGPSTSYPIIGTISQNQIAEVTGYSSDGTWYKIKINGIEGYASSTYLTYVNNLEHHHHHH”, which protein production is on record?
A: failed

Q: Which protein production does the source give for “MRKTWPLLTLLLCTCASAQLRADIAHNTPPGQATMQVYDGEKVLFQATTPGLNAVTASKFSPDGRWLLNIADGSGYVQLWDTAKGERVKTFLSVYFRIFGADFTPDSERLLLDFSGSKERADPRRPAYFPSPSLWNLATLERISFVYNDKRESFYNGKVTFSQDGERMAFVRPNAYSSGPASVWNAKTGAYIATISRLPYPKGAAQTGGAGAMDARLSPDGQRVLVRYVDNRLAEYDASTGTLLKVRGKFSAADAGAELERFAREGR” here?
A: failed

Q: Which protein production does the source give for “MRKTYKYRLYTCERNKHLVESIELASVVWNHFVALTRRYYEIYGEYPGYYALKKHLTKLKQRDKGHWYDLNSQALQNVIERLDQAYQRFFEIDSAGRPGFKKREKYTSFTLTQTGWKLLGGNRVRIQNHNYKFVKSRPIKGEIKTVTIKRDACGYLWICFSVEKEPPTPELPRTGNAVGLDFGLKDFLVTSDGDRIQAPEPLQESLEEVQDLHKKLSRKERGSNNRKEAKRRLAKKYRQIDNQRKDFHFKLARRLFSRYDVVCIEELNVGAMKELWGRKVSDLGFASFVKILEHVAQKEGKEVRKIDRWFPSSQTCSDCSHRYEDLSLEERTWTCEECGSLHDRDLNAARNVLERALSSAEAGVRPSGAAARVARSS” here?
A: failed

Q: With “MRKYEIMYIIRPGVEEEAQKALVERFAGVLTNNGAEIINTKEWGKRRLAYEINDLREGFYMILNVNANAEAINEFDRLAKINEDILRHIVVKEEEK” as the sequence, how does the protein production read?
A: not failed

Q: Which protein production does the source give for “MRLAYVKNHEIYGEKLLGLTLRERIEKTLQRAGFDVRFFDELSLEEAEDYLIILEPVLILERDLLLEGRKILVSDGFTVGYFFGGDFRTVFDGNLQSSIEKYLSLNNLESYEIWAIKLSNDNLKTAEKLLLSSLIKAKRTGLKPAYYDGWIAREINRKVSLRISRLLADTSVTPNQITVFSFFLSLVGSALFLLNSYLTTLLAGVIIQLHSIIDGCDGEIARLKFMESKYGAWLDGVLDRYSDFIIVFSITYVLSASNPVYWIIGFLAAFASLMIAYTGDKFVAAYMRTYSPEGFAIPITRDFRLLIIFACSVVNLPSLALVIIALLGNFEALRRIVALRSYTN” here?
A: failed

Q: Which protein production does the source give for “MRLILNLIWLFFGGIWLALGYVFFGIIACIFIVTIPAGIASFRMANYALWPFGRTVVRNPKAGGFSALSNGLWFIIAGLWLAIGHLTTAAAQAITIIGIPLAIANIRMIPVTCFPFGKEIYDSNRIPFGYEPMVKF” here?
A: failed

Q: For “MRLILSQCLANLSVRFLMNRNSYNKIAHLWNVARNGFFGREREYLDAILSVAPIGSTILDLGCGTGRPMAEYIVSRGRCVLGVDQSEEMLRLARQKLPHEQWVLSSIESYEPVEGYHGALLWDSLFHIRRTEHELIVSKVVRGLPSGGRLMLTVGGSAHPEFTDFMYGEEFYYDSNTPQETETFLQRLSCRMVIGEYMNLPDGGRDKGRYAIVAEKILEHHHHHH”, which protein production is on record?
A: failed
